Laboratory results: PMC8041770

Key:
[1] = target: recombinant human LIF, histidine-tagged (hLIF-His) (human) (UniProt P15018)
[2] = target: recombinant human LIF, histidine-tagged (hLIF-His) (human) (UniProt P15018); test: Kinetic Exclusion Assay (KinExA); both partners soluble; hLIF-His constant (100 pM for eLIFR-Fc, 250 pM for hLIFR-Fc), LIFR-Fc serially diluted, 18 h, BPBS with 0.02% sodium azide; free LIF-His captured on LIFR-Fc-coated PMMA beads; apparent Kd, n-curve analysis
[3] = target: yeast surface-displayed human LIF (Ser23 to Phe203) (human) (UniProt P15018); test: flow cytometry on cells; hLIF displayed on yeast, soluble Fc fusion titrated in PBS with 1 mg/ml BSA; bound Fc detected by fluorescent anti-Fc antibody; apparent Kd by non-linear regression
[4] = target: yeast-displayed human LIF (hLIF, Ser23 to Phe203) (human) (UniProt P15018); test: flow cytometry on cells; LIF displayed on yeast (EBY100), soluble Fc fusion titrated in PBS with 1 mg/ml BSA, Fc detected with fluorescent secondary antibody; apparent Kd by non-linear regression

B1: hLIFR-Fc (wild-type human LIFR CBM I–Ig-like–CBM II fused to hIgG1 Fc) (Fc fusion)
chain: QKKGAPHDLKCVTNNLQVWNCSWKAPSGTGRGTDYEVCIENRSRSCYQLEKTSIKIPALSHGDYEITINSLHDFGSSTSKFTLNEQNVSLIPDTPEILNLSADFSTSTLYLKWNDRGSVFPHRSNVIWEIKVLRKESMELVKLVTHNTTLNGKDTLHHWSWASDMPLECAIHFVEIRCYIDNLHFSGLEEWSDWSPVKNISWIPDSQTKVFPQDKVILVGSDITFCCVSQEKVLSALIGHTNCPLIHLDGENVAIKIRNISVSASSGTNVVFTTEDNIFGTVIFAGYPPDTPQQLNCETHDLKEIICSWNPGRVTALVGPRATSYTLVESFSGKYVRLKRAEAPTNESYQLLFQMLPNQEIYNFTLNAHNPLGRSQSTILVNITEKVYPHTPTSFKVKDINSTAVKLSWHLPGNFAKINFLCEIEIKKSNSVQEQRNVTIKGVENSSYLVALDKLNPYTLYTFRIRCSTETFWKWSKWSNKKQHLTTEAS
IC50 of inhibition of LIF (20 pM) signalling through LIFR/gp130 in HeLa STAT3 luciferase reporter cells [1]: 1.8 nM | Kd [2]: 1.1 nM

B2: full-length eLIFR-Fc (Fc fusion)
chain: QKKGAPHDLKCVTNNLQVWNCSWKAPSGTGRGTDYEVCIENRSRSCYQLEKTSIKIPALSHGDYEITINSLHDFGSSTSKFTLNEQNVSLIPDTPEILNLSADFSTSTLYLKWNDRGSVFPHRSNVIWEIKVLRKESMELVKLVTHNTTLNGKDTLHHWSWASDMPLECAIHFVEIRCYIDNLHFSGLEEWSDWSPVKNISWIPDSQTKVFPQDKVVPVGSDITFCCVSQEKVLSALIGRTNCPLIHLDGENVAIKVRNVSASASSGTNVVFITEDDIFGTVIFAGYPPDTPQQLNCETHDLKEIICSWNPGRVTALVGPRATSYTLVESFSGKYVRLKRAEAPTNESYQLLFQMLPNQEIYNFTLNAHNPLGRSQSTILVNITEKVYPHTPTSFKVKDINSTAVKLSWHLPGNFAKINFLCEIEIKKSNSVQEQRNVTIKGVENSSYLVALDKLNPYTLYTFRIRCSTETFWKWSKWSNKKQHLTTEASPSKGPDTWREWSSDGKNLIIYWKPLPINEANGKILSYNVSCSSDEETQSLSEIPDPQHKAEIRLDKNDYIISVVAKNSVGSSPPSKIASMEIPNDDLKIEQVVGMGKGILLTWHYDPNMTCDYVIKWCNSSRSEPCLMDWRKVPSNSTETVIESDEFRPGIRYNFFLYGCRNQGYQLLRSMIGYIEELAPIVAPNFTVEDTSADSILVKWEDIPVEELRGFLRGYLFYFGKGERDTSKMRVLESGRSDIKVKNITDISQKTLRIADLQGKTSYHLVLRAYTDGGVGPEKSMYVVTKENSVGLIIAILIPVAVAVIVGVVTSILCYRKREWIKETFYPDIPNPE
Kd [3]: 0.35 nM

B3: C-terminal eLIFR-Fc fusion containing a (Glycine)4Serine linker (Fc fusion)
chain: GGGGSDLKCVTNNLQVWNCSWKAPSGTGRGTDYEVCIENRSRSCYQLEKTSIKIPALSHGDYEITINSLHDFGSSTSKFTLNEQNVSLIPDTPEILNLSADFSTSTLYLKWNDRGSVFPHRSNVIWEIKVLRKESMELVKLVTHNTTLNGKDTLHHWSWASDMPLECAIHFVEIRCYIDNLHFSGLEEWSDWSPVKNISWIPDSQTKVFPQDKVVPVGSDITFCCVSQEKVLSALIGRTNCPLIHLDGENVAIKVRNVSASASSGTNVVFITEDDIFGTVIFAGYPPDTPQQLNCETHDLKEIICSWNPGRVTALVGPRATSYTLVESFSGKYVRLKRAEAPTNESYQLLFQMLPNQEIYNFTLNAHNPLGRSQSTILVNITEKVYPHTPTSFKVKDINSTAVKLSWHLPGNFAKINFLCEIEIKKSNSVQEQRNVTIKGVENSSYLVALDKLNPYTLYTFRIRCSTETFWKWSKWSNKKQHLTTEAS
Kd [4]: 0.02 nM
